From patent US10357573B2, “Block copolymer conjugate of physiologically active substance” (Nippon Kayaku Kabushiki Kaisha, priority 2015, dated 2019) come the findings set out here.

The test system of data set [1] is human stomach cancer SC-4-JCK. Briefly: Test Example A-5 antitumor effect in human stomach cancer-transplanted nude mouse. To be noted: 12 mg/kg as converted to 7-ethyl-10-hydroxycamptothecin, iv once; for Relative tumor volume: 14th day after administration, day of administration = 1.0, average ± SD. It is filed as in vivo.
Description: A tumor mass of human stomach cancer SC-4-JCK that had been subcutaneously subcultured in a nude mouse was cut into a block having a size of about 3 mm on each side, and this block was subcutaneously transplanted on the dorsal side of a nude mouse using a trocar.
A relative tumor volume was determined from the tumor volumes obtained on the day of administration and on the 14th day after the administration, and this was employed as an index for the antitumor effect. The tumor volume was determined by measuring the major axis (L: mm) and the minor axis (W: mm) of the tumor, and calculating the volume by the calculation formula: (L×W^2)/2.
Data set [2] can be described thus: Light scattering intensity of 1 mg/mL aqueous solution, relative to toluene. It is filed as physicochemical. The conditions noted are these: for relative ratio between the light scattering intensity and the light scattering intensity of toluene: 1 mg/mL aqueous solution vs standard toluene solution under the same conditions; for light scattering intensity of a 1 mg/mL aqueous solution: 1 mg/mL in ultrapure water, 25° C., wavelength 632.8 nm. Here is the method: Regarding the measurement sample for the scattering intensity measurement, a solution obtained by adding ultrapure water to a physiologically active substance-conjugated block copolymer to obtain a concentration of 1 mg/mL, dissolving the block copolymer by irradiating the mixture with ultrasonic waves for 10 minutes under ice cooling, and then filtering the solution through a 0.2-μm membrane filter, was used.
Toluene (manufactured by Junsei Chemical Co., Ltd., special grade) that was used for the measurement of the light scattering intensity, was used after being filtered three times through a 0.2-μm membrane filter.

Data set [3] can be described thus: Test Example A-4 hematotoxicity test in non-tumor bearing rat. It is filed as in vivo, Sprague-Dawley rats. To be noted: 40 mg/kg as converted to 7-ethyl-10-hydroxycamptothecin; for prolonged hematotoxicity: 7 days after administration; for Number of blood reticulocytes: iv once, 7th day after administration. The text has this:
The resultant solutions were used as analysis samples.

Data set [4] is described as follows: Volume average particle diameter by dynamic light scattering. The conditions noted are these: device A, 1 mg/mL. It is filed as physicochemical. Here is the method: Measurement of the volume average particle diameters of the physiologically active substance-conjugated block copolymers of Examples and Comparative Examples was carried out using a ZetaPotential/Particlesizer NICOMP 380 ZLS (device A; temperature: 25° C.) manufactured by Particle Sizing Systems, LLC, or a particle size zeta potential analyzer, ZETASIZER NANO ZS (device B; measurement temperature: 25° C., analysis model: General Purpose (normal resolution), material RI: 1.59) manufactured by Malvern Instruments, Ltd. Regarding the volume average particle diameter measurement sample, a solution obtained by adding ultrapure water to a physiologically active substance-conjugated block copolymer to obtain a concentration of 1 mg/mL or 5 mg/mL, dissolving the block copolymer by irradiating the mixture with ultrasonic waves for 10 minutes under ice cooling, and then filtering the solution through a 0.2-μm membrane filter, was used.

Data set [5] in a line: Test Example A-3 hepatotoxicity test in non-tumor bearing mouse. It is filed as in vivo, Crl:CD1(ICR)(ICR(IGS)) mice. On the set-up: ALT: unit not given here. The conditions noted are these: for ALT: iv once, blood plasma 3 days after administration; for hepatotoxicity: maximum tolerated dose iv once, 3 days after administration. Here is the method: The blood plasma obtained by centrifuging the blood thus collected (4° C., 1600×g, 10 minutes) was used as a measurement sample, and a blood chemical examination of the measurement sample was performed using an automatic biochemical analysis apparatus Model 7180 (Hitachi High Technologies Corp.).

The next data set relates to human lung cancer H460. The experiment in a line: Test Example C-4 antitumor effect test in human lung cancer-transplanted nude mouse. It is filed as in vivo. To be noted: for Relative tumor volume: iv once, 15th day after administration, day of administration = 1.0, average ± SD; for antitumor effect: compared to cabazitaxel 30 mg/kg. Here is the method:
A tumor mass of human lung cancer H460 that had been subcutaneously subcultured in a nude mouse was cut into a block having a size of about 3 mm on each side, and this block was subcutaneously transplanted on the dorsal side of a nude mouse using a trocar.
A relative tumor volume was determined from the tumor volumes obtained on the day of administration and on the 15th day after the administration, and this was employed as an index for the antitumor effect. The tumor volume was determined by measuring the major axis (L: mm) and the minor axis (W: mm) of the tumor, and calculating the volume by the calculation formula: (L×W^2)/2.

How the values of data set [6] were obtained: As a control group, a 5% glucose injection solution was intravenously administered once through the caudal vein.
Polysorbate 80 was added thereto in an amount equal to the amount of anhydrous ethanol, and the mixture was sufficiently mixed. This was used as a preparation stock solution.
After 3, 5, 7, 11, and 14 days from the day of administration of the various compounds, blood was collected through the subclavian vein without anesthesia using a 1-mL disposable syringe with a 26 G needle. About 3 μL of an EDTA-2K solution had been added in advance to the syringe, and this solution was sufficiently mixed with the blood thus collected. The resultant solutions were used as analysis samples. The blood samples were subjected to a blood cell analysis using a blood cell analysis apparatus XT-2000iV (Sysmex Corp.).

A short description of data set [7]: Maximum tolerated dose / maximum non-lethal dose, single intravenous administration. It is filed as in vivo, mice. The conditions noted are these: iv once through the caudal vein; for maximum tolerated dose: as converted to cabazitaxel.
Data set [8] concerns human pancreatic cancer BxPC3. The experiment in a line: Test Example C-3 antitumor effect test in human pancreatic cancer-transplanted nude mouse. It is filed as in vivo. To be noted: for Relative tumor volume: iv once, 8th day after administration, day of administration = 1.0, average ± SD; for antitumor effect: compared to cabazitaxel 30 mg/kg. Here is the method: A tumor mass of human pancreatic cancer BxPC3 that had been subcutaneously subcultured in a nude mouse was cut into a block having a size of about 3 mm on each side, and this block was subcutaneously transplanted on the dorsal side of a nude mouse using a trocar.
A relative tumor volume was determined from the tumor volumes obtained on the day of administration and on the 8th day after the administration, and this was employed as an index for the antitumor effect. The tumor volume was determined by measuring the major axis (L: mm) and the minor axis (W: mm) of the tumor, and calculating the volume by the calculation formula: (L×W^2)/2.

The mark [9] stands for this setting: dose 100 mg/kg as converted to 7-ethyl-10-hydroxycamptothecin (maximum tolerated dose).
Where [10] appears, read: 60 mg/kg as converted to cabazitaxel.

Read-outs that look alike come from different tables or passages of the source.

As for “7-ethyl-10-Hydroxycamptothecin (EHC) Conjugate of polyethylene glycol (5 Kilodaltons)-polyglutamic Acid (10.0 Polymer) Block Copolymer [Example A-3]”, in data set [1], the “antitumor effect” value was “stronger antitumor effect compared to the Comparative Examples” and the Relative tumor volume amounted to 1.574 ± 0.388. Besides, in data set [2], the “relative ratio between the light scattering intensity and the light scattering intensity of toluene” value is given as 3.0 times; the “light scattering intensity of a 1 mg/mL aqueous solution” value is 16,750 cps. In data set [3], the “prolonged hematotoxicity” value is reported as “prolonged hematotoxicity was not recognized” and the “Number of blood reticulocytes” value is 54.29 ± 8.49 ×10^4/μL. For the same compound, the “volume average particle diameter” value in [4] is listed as 8 nm.

Compound “7-ethyl-10-hydroxycamptothecin (EHC) Conjugate of polyethylene glycol (2 Kilodaltons)-polyglutamic Acid (7.6 Polymer) Block Copolymer [Example A-1]” displayed a Relative tumor volume in data set [1] of 2.466 ± 0.398. In data set [2], the “relative ratio between the light scattering intensity and the light scattering intensity of toluene” value is recorded as 3.1 times; the “light scattering intensity of a 1 mg/mL aqueous solution” value is given as 17,070 cps. Moreover, in data set [3], the “prolonged hematotoxicity” value is reported as “prolonged hematotoxicity was not recognized” and the “Number of blood reticulocytes” value is 64.18 ± 4.43 ×10^4/μL. Besides, the ALT in data set [5] (setting [9]) came to 64 ± 25. Moreover, in data set [5], the “hepatotoxicity” value was “hepatotoxicity was negligible”. For the same compound, the “volume average particle diameter” value in data set [4] came to 6 nm.

In [1], “7-ethyl-10-hydroxycamptothecin (EHC) Conjugate of polyethylene glycol (2 Kilodaltons)-polyglutamic Acid (10.0 Polymer) Block Copolymer [Example A-2]” had a Relative tumor volume of 2.593 ± 0.482. In addition, in [2], the “relative ratio between the light scattering intensity and the light scattering intensity of toluene” value was 4.9 times; the “light scattering intensity of a 1 mg/mL aqueous solution” value is recorded as 27,149 cps. Also, the ALT in [5] (setting [9]) was 55 ± 54. In addition, the “hepatotoxicity” value in [5] is “hepatotoxicity was negligible”. Further, the “volume average particle diameter” value in data set [4] turned out to be 10 nm.

As for “7-ethyl-10-hydroxycamptothecin (EHC) Conjugate of polyethylene glycol (3 Kilodaltons)-polyglutamic Acid (6.6 Polymer) Block Copolymer [Comparative Example A-2, reference compound]”, the Relative tumor volume in [1] was 2.426 ± 1.122. Moreover, in [2], the “relative ratio between the light scattering intensity and the light scattering intensity of toluene” value was found to be 1.80 times; the “light scattering intensity of a 1 mg/mL aqueous solution” value is listed as 9,964 cps; the “self-association in aqueous solution” value was “non-associating”. Besides, the “Number of blood reticulocytes” value in data set [3] was 66.17 ± 7.74 ×10^4/μL. Besides, the ALT in data set [5] (setting [9]) stood at 528 ± 681. Moreover, in [5], the “hepatotoxicity” value is “occurrence of hepatotoxicity was acknowledged”.

On to “7-ethyl-10-hydroxycamptothecin (EHC) Conjugate of polyethylene glycol (12 Kilodaltons)-polyglutamic Acid (7.5 Polymer) Block Copolymer [Comparative Example A-3]”, for which, in data set [2], the “relative ratio between the light scattering intensity and the light scattering intensity of toluene” value is recorded as 1.0 times; the “light scattering intensity of a 1 mg/mL aqueous solution” value was 5,625 cps; the “self-association in aqueous solution” value is “non-associating”. This compound also gave an ALT in [5] (dose 50 mg/kg as converted to 7-ethyl-10-hydroxycamptothecin (maximum tolerated dose)) of 114 ± 68. Also, in data set [5], the “hepatotoxicity” value was “hepatotoxicity was clearly manifested”.

“7-ethyl-10-hydroxycamptothecin (EHC) Conjugate of polyethylene glycol (12 Kilodaltons)-polyglutamic Acid (25 Polymer) Block Copolymer [Comparative Example A-1, reference compound]” yielded a Relative tumor volume in [1] of 2.232 ± 0.534. Moreover, in [2], the “relative ratio between the light scattering intensity and the light scattering intensity of toluene” value came out at 7.5 times; the “light scattering intensity of a 1 mg/mL aqueous solution” value was 41,321 cps. In [3], the “prolonged hematotoxicity” value is listed as “prolonged hematotoxicity was recognized” and the “Number of blood reticulocytes” value was 20.26 ± 11.50 ×10^4/μL. The “volume average particle diameter” value in data set [4] is reported as 20 nm.

As for `CO[C@H]1C(=O)[C@]2(C)[C@@H](OC)C[C@H]3OC[C@@]3(OC(C)=O)[C@H]2[C@H](OC(=O)c2ccccc2)[C@]2(O)C[C@H](OC(=O)[C@H](O)[C@@H](NC(=O)OC(C)(C)C)c3ccccc3)C(C)=C1C2(C)C` [Cabazitaxel, reference compound], the Relative tumor volume is 1.476 ± 0.509 with human lung cancer H460 (30 mg/kg) and 1.19 ± 0.21 in [8] (30 mg/kg). The “prolonged hematotoxicity” value in data set [6] (mouse, in vivo) is “prolonged hematotoxicity was not recognized”. In addition, in [7], the maximum non-lethal dose was 30 mg/kg.

Regarding “Cabazitaxel (CBZ) Conjugate of polyethylene glycol (5 Kilodaltons)-α-polyaspartic Acid (20.0 Polymer) Block Copolymer [Example C-2]”, the “antitumor effect” value (in the data set with human lung cancer H460 (setting [10]); in data set [8] (setting [10])) was “stronger tumor proliferation suppressing action” throughout. In addition, the Relative tumor volume in the data set with human lung cancer H460 (setting [10]) was 0.800 ± 0.371; in data set [8] (setting [10]), 0.81 ± 0.17. The compound also came in with a maximum tolerated dose in data set [7] of 60 mg/kg.

On to “Cabazitaxel (CBZ) Conjugate of polyethylene glycol (12 Kilodaltons)-α,β-polyaspartic Acid (23.8 Polymer) Block Copolymer [Comparative Example C-1, reference compound]”, for which, in the data set with human lung cancer H460 (setting [10]), the “antitumor effect” value is recorded as “stronger tumor proliferation suppressing action” and the Relative tumor volume was 0.484 ± 0.083. The “Number of blood reticulocytes” value in data set [6] (60 mg/kg as converted to cabazitaxel, iv once, 5th day after administration) is given as 18.49 ± 13.10 ×10^4/μL. Also, the “prolonged hematotoxicity” value in [6] (5 days after administration) is on record as “prolonged hematotoxicity was recognized”. Besides, in data set [7], the maximum tolerated dose is reported as 60 mg/kg. Also, in [8] (setting [10]), the “antitumor effect” value was “stronger tumor proliferation suppressing action” and the Relative tumor volume amounted to 0.78 ± 0.09.
